Experimental data reported in the supplement of paper PMC9732359.
± gives the uncertainty stated by the source.

Assay: protein stability index of a GFP-peptide fusion (yeast GPS) (PSI 1-4); higher = more stable; sorted into four equal gates, so the index is relative within each strain
Procedure, shortened: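 Tiled yeast protein peptides of 17 residues were each joined downstream of GFP, on plasmids that also express Cherry. The pooled library was maintained in yeast, and mid-log cultures in leucine-free medium were sorted into four equal gates on the GFP/Cherry ratio. Plasmids from every gate were amplified by PCR and sequenced on Illumina, with barcodes linking reads to strains. The protein stability index of a peptide is its gate-number-weighted read frequency summed over the gates.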

Sequence	protein stability index (doa10∆)	protein stability index (pdr5∆)	protein stability index (san1∆)	protein stability index (ubr1∆)
KSKREEEAKSVLPAATK [ARP9]	1.1 ± 0.092	1.37 ± 0.067	1.29 ± 0.11	1.21 ± 0.054
PRETIPFLHLRKKTPAG [FAS2]	2.73 ± 0.13	2.43 ± 0.1	2.63 ± 0.13	2.78 ± 0.094
SFCGFLLYYIPSLELSA [YJR042W/NUP85]	1.65 ± 0.051	1.58 ± 0.065	1.57 ± 0.1	1.95 ± 0.059
SDSETNHKSKDNNNGDD [SKP1]	2.9 ± 0.054	3.17 ± 0.051	3.11 ± 0.04	3.15 ± 0.045
NNTKAGRRKTWKRQNTL [RPL15A]	2.65 ± 0.059	2.95 ± 0.07	2.44 ± 0.083	2.87 ± 0.12
YPVHEAHKGQIVLIKGI [SNU114]	1.52 ± 0.095	2.45 ± 0.088	1.37 ± 0.15	2.87 ± 0.088
IRVTNSFALPFEEDEKN [RPN8]	2.67 ± 0.062	2.48 ± 0.046	3.05 ± 0.044	3.15 ± 0.043
SMERKVQGAAPWDTSLE [MCD1]	3.5 ± 0.11	3.1 ± 0.089	3.25 ± 0.087	3.44 ± 0.16
NNTTTTSTKPSFSFGAP [YOR098C/NUP1]	3.26 ± 0.11	3.38 ± 0.1	3.04 ± 0.056	3.01 ± 0.076
WTIPHKKWNDLKNKNFK [SIR2]	3.22 ± 0.14	3.38 ± 0.13	3.29 ± 0.11	3.23 ± 0.073
NISNAKLANFFSKKGNE [YAR002W/NUP60]	2.83 ± 0.092	3.05 ± 0.062	2.88 ± 0.07	2.33 ± 0.079
NTHYHADYRLILTGTPL [SNF2]	1.31 ± 0.11	1.71 ± 0.097	1.39 ± 0.12	1.75 ± 0.076
LNVKCTRNPDAPKGSTD [RPC40]	3.19 ± 0.095	3.1 ± 0.11	3.04 ± 0.064	3.06 ± 0.12
ESDGRMFIEEPTRMVRV [SRP54]	2.77 ± 0.082	2.99 ± 0.11	2.83 ± 0.099	2.73 ± 0.054
RLKEINGWEKYLHNVEL [ISW2]	2.97 ± 0.12			2.94 ± 0.057
KIDLLSGQFYFRNPTPL [RGR1]	2.67 ± 0.22	3.03 ± 0.15	3.12 ± 0.076	2.82 ± 0.074
MTVAHLIECLLSKVAAL [RPB2]	1.97 ± 0.084	2.01 ± 0.074	1.84 ± 0.1	1.54 ± 0.054
RELREVIELPLKNPEIF [RPT4]	2.71 ± 0.14	3.73 ± 0.27	3.08 ± 0.18	3.06 ± 0.088
CCTKFFTMMTSEPLTLK [PCI8]	2.03 ± 0.07	2.15 ± 0.057	1.98 ± 0.12	1.64 ± 0.053
SIQPIESNIKMTLEDNN [SSN2]	3.12 ± 0.077	3.08 ± 0.075	2.81 ± 0.053	2.97 ± 0.043
NKAQAKMDKRAKTSDSA [RPL8B]	3.34 ± 0.23	3.02 ± 0.12	3.27 ± 0.066	3.31 ± 0.071
TEYGRKYNVNISALTQT [PRP8]	2.07 ± 0.14	2.53 ± 0.093	2.94 ± 0.14	2.5 ± 0.047
VPKLESSRTKFWSFLDS [YJL039C/NUP192]	1.61 ± 0.29		1.61 ± 0.13	1.44 ± 0.096
LLHVAVSDSNDDVRRAA [RPN2]	3.01 ± 0.087	3.22 ± 0.076	2.69 ± 0.12	3.13 ± 0.11
NNAVRFSKQCLISNAIY [ECM29]	1.7 ± 0.078	2.39 ± 0.088	1.82 ± 0.11	1.08 ± 0.094
TIRVVTENKIFVEVERA [RPN5]	1.51 ± 0.18	1.94 ± 0.14		2.45 ± 0.27
SLIENKKAKLVLIANDV [RPL8B]	2.32 ± 0.13	3.23 ± 0.17	2.99 ± 0.12	2.35 ± 0.14

Sequence	protein stability index (doa10∆)	protein stability index (pdr5∆)	protein stability index (san1∆)	protein stability index (ubr1∆)
VIQDEVLAHRIGLVPLK [RPC40]	2.94 ± 0.27			
SKDIETLKKEWLKEYED [YIL149C/MLP2]	3.34 ± 0.093	3.16 ± 0.085	3.26 ± 0.053	3.15 ± 0.051
DPGRYNKVCRIEAASTT [RPB8]	2.41 ± 0.093	2.53 ± 0.099	2.48 ± 0.1	2.73 ± 0.082
DGLLEYLEDIIGTANYK [SMC4]	2.38 ± 0.072	2.53 ± 0.055	2.6 ± 0.078	2.36 ± 0.054
LRDYTTVPRIVQLLSKS [RPN2]	1.62 ± 0.046	1.98 ± 0.053	2.26 ± 0.1	1.73 ± 0.045
ERLDKDKDRDTRRKRRQ [SNF5]	2.82 ± 0.13	3.27 ± 0.21	2.9 ± 0.11	3.46 ± 0.13
LEATWNFIEPGINQILG [CDC53]	2.95 ± 0.29	2.75 ± 0.27	3.38 ± 0.1	3.08 ± 0.12
LSLVYEIGGSDLKESMV [ECM29]	2.98 ± 0.11	3.32 ± 0.12	3.36 ± 0.051	3.28 ± 0.11
FSIFNYFKMFPASKHDK [RPC34]	3.28 ± 0.19	1.34 ± 0.12		2.44 ± 0.2
QENKNIDDENITKLNKE [SRB4]	3.44 ± 0.056	3.23 ± 0.068	3.22 ± 0.052	3.46 ± 0.057
EDFDVEHFSDEETYEEK [RPO26]	3.64 ± 0.11	3.05 ± 0.2	3.19 ± 0.22	3.45 ± 0.11
GIGSLTDLMSIVQELLD [RPC34]	3.49 ± 0.17	2.91 ± 0.16	3.23 ± 0.13	3.17 ± 0.13
IEKMSTIVQLCKKKEMS [YIL149C/MLP2]	1.8 ± 0.059	1.78 ± 0.055	1.59 ± 0.099	1.76 ± 0.051
EGLELLGWIHTQTEELK [PRP8]	2.94 ± 0.1	2.65 ± 0.091	3.16 ± 0.053	3.29 ± 0.099
PTVSLTINLDRFMKGRR [RPC82]	2.38 ± 0.083	2.48 ± 0.06	2.62 ± 0.062	2.63 ± 0.081
DMAKLKKMMNTSDSEST [SWI3]	1.81 ± 0.059	2.27 ± 0.05	1.94 ± 0.073	1.91 ± 0.036
LDPINLPLDSQDDEYVK [PRP8]	2.83 ± 0.075	3.01 ± 0.066	3.14 ± 0.093	3.05 ± 0.045
RKNDNANDHDESIDVDM [SMC3]	2.83 ± 0.24	2.72 ± 0.23	3.32 ± 0.11	3.19 ± 0.094
EYADNDEDKFKKLKPIV [PRP28]	2.82 ± 0.072	2.65 ± 0.092	3.09 ± 0.09	2.64 ± 0.041
GLIMLNLQPASVINNYL [NUT1]	1.71 ± 0.063	1.5 ± 0.098	1.15 ± 0.27	2 ± 0.071
KILNIIKCSQSSHLSDN [POP5]	1.97 ± 0.05	2.77 ± 0.069	2.28 ± 0.065	2.09 ± 0.053
QRETSGMIVISMENYHL [SRB8]	2.16 ± 0.04	1.99 ± 0.04	2.09 ± 0.042	2.35 ± 0.033
LEKFLQGRDTSKLPDPE [SRP72]	2.76 ± 0.11	2.2 ± 0.06	2.38 ± 0.11	2.77 ± 0.051
YTKPYPNFEASFVHGVV [SMC2]	2.53 ± 0.15	2.32 ± 0.13	2.47 ± 0.26	2.33 ± 0.14
TNEEVRNMAEEFEYDDE [CYT1]	2.92 ± 0.14	2.3 ± 0.077	2.49 ± 0.098	2.2 ± 0.041
MDRTQTFIKDCLFTKCL [POP4]	1.75 ± 0.05	1.75 ± 0.056	1.7 ± 0.1	1.94 ± 0.044
